Measured values as given in patent US20200024358A1 (published 2020).
Positions count from the first letter of the chain named.

B1: CDR1-010 (other)
heavy: QIQLVQSGPELKKPGETVKISCKASGYTFTDYSINWVKRAPGKGLKWMGWINTETREPAYAYDFRGRFAFSLETSASTAYLQINNLKYEDTATYFCALDYSYAMDYWGQGTSVTVSSASTKGPSVFPLAPSSKSTSGGTAALGCLVKDYFPEPVTVSWNSGALTSGVHTFPAVLQSSGLYSLSSVVTVPSSSLGTQTYICNVNHKPSNTKVDKRVEPKSCGGGGSEIVMTQSPSTLSASVGDRVIITCQASEAIYSLLAWYQQKPGKAPKLLIYDASDLASGVPSRFSGSGSGAEFTLTISSLQPDDSATYYCQGNYGSSSSSSYGAVFGQGTKLTVLGGGGGSGGGGSGGGGSGGGGSEVQLVESGGGSVQPGGSLRLSCTVSGIDLSSYTMGWVRQAPGKGLEWVGIISSGGRTYYASWAKGRFTISRDTSKNTVYLQMNSLRAEDTATYYCARGRYTGYPYYFALWGQGTTVTVSS
light: DIVLTQSPASLAMSLGKRATISCRASESVSVIGAHLIHWYQQKPGQPPKLLIYLASNLETGVPARFSGSGSGTDFTLTIDPVEEDDVAIYSCLQSRIFPRTFGGGTKLEIKRTVAAPSVFIFPPSDEQLKSGTASVVCLLNNFYPREAKVQWKVDNALQSGNSQESVTEQDSKDSTYSLSSTLTLSKADYEKHKVYACEVTHQGLSSPVTKSFNRGECGGGGSAVVTQEPSLTVSPGGTVTLTCGSSTGAVTTSNYANWVQQKPGKSPRGLIGGTNKRAPGVPARFSGSLLGGKAALTISGAQPEDEADYYCALWYSNHWVFGGGTKLTVLGGGGGSGGGGSGGGGSGGGGSEVQLVESGGGSVQPGGSLRLSCAASGFTFSTYAMNWVRQAPGKGLEWVGRIRSKANNYATYYADSVKGRFTISRDDSKNTLYLQMNSLRAEDTATYYCVRHGNFGDSYVSWFAYWGQGTTVTVSS
B2: CDR1-013 (other)
heavy: B1 heavy with A253D, N316A
light: B1 light
B3: CDR1-014 (other)
heavy: B1 heavy with A253D, T392A
light: B1 light
B4: CDR1-018 (other)
heavy: B1 heavy with A253D, Y459A
light: B1 light
B5: CDR1-012 (other)
heavy: B1 heavy with A253D, D275A
light: B1 light
B6: CDR1-016 (other)
heavy: B1 heavy with A253D, R415A
light: B1 light
B7: CDR1-015 (other)
heavy: B1 heavy with A253D, G413A
light: B1 light

Target: T1, extracellular domain of human PD-L1 (Example 8) (human, UniProt Q9NZQ7 19-238)
T1 construct: extracellular domain; also called PD-L1 antigen; immobilized PD-L1
T1 sequence (Q9NZQ7 19-238): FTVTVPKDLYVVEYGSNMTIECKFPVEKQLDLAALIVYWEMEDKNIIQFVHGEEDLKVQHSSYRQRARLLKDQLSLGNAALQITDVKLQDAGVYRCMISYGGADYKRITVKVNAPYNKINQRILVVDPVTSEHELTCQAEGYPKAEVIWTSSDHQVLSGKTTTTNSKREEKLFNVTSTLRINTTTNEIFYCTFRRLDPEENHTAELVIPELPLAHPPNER
Test: ELISA on coated extracellular domain of human PD-L1, serial dilutions
Description: Serial dilutions of the antibodies to final concentrations ranging from 0.5 ng/mL to 50 μg/ml were tested by ELISA for binding to the extracellular domain of human PD-L1 coated on a 96 well plate.

Binder | binding result
B1 | binds
B2 | binds
B3 | binds
B4 | binds
B5 | binds
B6 | binds
B7 | binds
